The supplement of paper PMC11865577

Experiments:
Assay in all cases: pull-down binding Z-score (relative to library population); higher = stronger binding
Conditions in all cases: RNA library: Library-2
[1] = tested on: TO-N3-2 (biotin conjugate)
Outline: (§1)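 An RNA library (1 μg) carrying a Cy5 or Cy3 end label was heat-folded in phosphate/NaCl/KCl buffer, then incubated for 60 min at 25 °C with streptavidin beads loaded with 100 pmol of biotin-conjugated small molecule. The beads were washed three times, and bound RNA was released in hot SDS and hybridised to a DNA barcode microarray for 20 h at 55.5 °C. Each binding score was derived by subtracting the signal from beads without compound, averaging the barcoded replicate probes after removing the highest and lowest, and expressing the result as a Z-score relative to the library mean and standard deviation.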

TO-N3 (biotin conjugate) = tested on: TO-N3 (biotin conjugate)
Outline: as §1

[2] = tested on: TO-3-N3 (biotin conjugate)
Outline: as §1

[3] = tested on: TO-3-N3-2 (biotin conjugate)
Outline: as §1

Sequence | pull-down binding Z-score [1] | pull-down binding Z-score (TO-N3 (biotin conjugate)) | pull-down binding Z-score [2] | pull-down binding Z-score [3]
GUGCCAGCACAAAAUGCUAUAAGCAC [IAV_invivo_PB1_2_Motif_3+IAV_invivo_PB1_2_Motif_3] | -0.727 | -1.07 | -0.871 | -0.201
ACCGGUGGAAUUGCUAUCGCAAUGGCUUGUCUUGUAGGCUUGAUGUGGCUCAGCUACUUCAUUGCUUCUUUCAGACUGUUUGCGCGUACGCGUUCCAUGUGGU | 0.838 | 1.07 | 1.2 | 0.131
UAUCCAAACGCAAGCUUCGAUAAUUUUAAGUUUGUAUGUGAUA [DMSMaPseq_invitro_SARS-CoV-2_Motif_115] | -0.609 | -0.225 | 0.127 | 0.145
GCAGUAUAAUUAAUAACUAAUUACUGU [SARS-CoV-2-Conserved-Structured-36_Interval-120-237_Motif_1] | -1.31 | -1.03 | -0.577 | -0.428
GACAUUUUAUCUUACUAAUGAUGUUUCUUUUUUAGCACAUAUUCAGUGGAUGGUUAUGUU [DMSMaPseq_invitro_SARS-CoV-2_Motif_175] | 0.0287 | 0.455 | 0.0838 | 0.317
GCUAAAUUGUUACAUAAACCUAUUGUUUGGCAUGUUAACAAUGCAACUAAUAAAGCCACGUAUAAACCAAAUACCUGGUGUAUACGUUGUCUUUGGAGC | -1.05 | -1.4 | -1.1 | -0.0887
CAGUUUGGUCCAACUUAUUUGGAUGGAGCUG | -0.976 | -1 | -0.686 | -0.514
CUGAUCCUAGUUUUCUGGGUAG [SHAPE_invivo_SARS-CoV-2_Motif_108] | -0.359 | -0.0828 | -0.135 | -0.369
CCAUAAUGAAUCUGG [DMSMaPseq_invitro_SARS-CoV-2_Motif_27] | -0.529 | -0.345 | -0.322 | -0.198
CCUUGCGAAAGGAGAGAAGGCUAAUGUGCUAAUUGGGCAAGG [IAV_invivo_PB2_1_Motif_34+IAV_invivo_PB2_1_Motif_34] | 0.837 | 0.291 | -0.245 | 0.584
ACAAGUUGCAAUUUACAAGUCUUGAAAUUCCACGUAGGAAUGUGGCAACUUUACAAGCUGAAAAUGUAACAGGACUCUUUAAAGAUUGU | 0.121 | -0.143 | -0.302 | 0.247
UUAAUUGAAUUGUGCGUGGAUGAGGCUGGUUCUAAAUCACCCAUUCAGUACAUCGAUAUCGGUAAUUAUACAGUUUCCUGUUUACCUUUUACAAUUAA [DMSMaPseq_invitro_SARS-CoV-2_Multi_84_ComplexLevel_1] | -0.403 | -0.239 | -0.244 | 0.0361
CUGGAAUUGCCGUUUUAG [SHAPE_invivo_SARS-CoV-2_Motif_210] | -0.115 | -0.0237 | 0.0793 | -0.112
UCGUCAAUAGGGCGA [IAV_invivo_PB2_1_Motif_18+IAV_invivo_PB2_1_Motif_18] | -0.56 | -0.554 | -0.228 | -0.184
CUUUGUAUUGCAUAGACGGUGCUUUACUUACAAAGUCCUCAGAAUACAAAG | -1.1 | -1.28 | -0.811 | -0.719
CUAGUUGUGAUGCAAUCAUGACUAG | -1.39 | -0.883 | -0.351 | -0.444
GGGAGCUAUAAACAGCAGUCUCCC [IAV_invivo_HA_4_Motif_12+IAV_invivo_HA_4_Motif_12] | 0.468 | 0.537 | 0.403 | 0.213
GUGGGGUAUUCAUCACCCGC [IAV_invivo_HA_4_Motif_9+IAV_invivo_HA_4_Motif_9] | 0.897 | 1.62 | 1.69 | 0.689
GACCAGAAAUCAGCCCGAAUGGUU [IAV_invivo_PB1_2_Motif_17+IAV_invivo_PB1_2_Motif_17] | -0.162 | -0.464 | -0.477 | -0.175
CAACAAAAGUUG [SHAPE_invivo_SARS-CoV-2_Motif_413] | -1.52 | -1.44 | -0.893 | -0.787
AGUUGCUUACUCUAAUAACU [DMSMaPseq_invitro_SARS-CoV-2_Motif_421] | -0.822 | -0.387 | -0.129 | -0.314
CCUAUACUGUUACUAGAUCAGGCAUUAGUGUCUGAUGUUGGUGAUAGUGCGG [DMSMaPseq_invitro_SARS-CoV-2_Motif_147] | -0.184 | 0.0062 | 0.0141 | 0.0824
AUCUUUCUGUGCUUUUGCUGUAGAUGCUGCUAAAGCUUACAAAGAU | -0.263 | 0.0426 | 0.238 | 0.0938
UGUGAUUUUAAUAGCUUCUUAGGAGAAUGACA [SHAPE_invivo_SARS-CoV-2_Motif_573] | -0.333 | -0.641 | -0.571 | -0.182
GUCACACCUUCGGGAACGUGGUUGAC | 0.518 | -0.0943 | -0.558 | -0.338

Sequence | pull-down binding Z-score [1] | pull-down binding Z-score (TO-N3 (biotin conjugate)) | pull-down binding Z-score [2] | pull-down binding Z-score [3]
UCCUCCCAGUGGCUGGUGGA [IAV_invivo_PB2_1_Motif_9+IAV_invivo_PB2_1_Motif_9] | -0.225 | -0.228 | -0.0747 | -0.322
GCGCGGCCAGAAACUGGCUGCGC [mismatch-GU] | -0.388 | 0.831 | 0.969 | 0.0256
AGGUAAAACCAACAGUGGUUGUUAAUGCAGCCAAUGUUUACCU | -1.45 | -1.2 | -0.405 | -0.615
UGGGGUUGGGGUUGGGGUUGGGGUUGGGGUUGGGGU [G4_r(UGGGGU)6] | 4.95 | 6.75 | 7.92 | 8.72
CCUAAACGAACAUGAAAUUUCUUGUUUUCUUAGG | -0.729 | -1.08 | -0.979 | -0.593
UGUGCUUGUGAAAUUGUCGGUGGACAAAUUGUCACCUGUGCA | -0.816 | -0.833 | -0.722 | -0.27
GAACCUUGCUCUUCUGGAACAUACGAGGGCAAUUC | -0.153 | 0.239 | 0.401 | -0.0628
GGUCUCCGACGGAGGCC [IAV_invivo_PB1_2_Motif_32+IAV_invivo_PB1_2_Motif_32] | -1.15 | -0.183 | 0.0169 | -0.224
GCUCAGGAUGGUAAUGCUGCUAUCAGC | 1.05 | 0.203 | -0.137 | -0.00388
GGAGACAGGUGGUUUCUCAAUCGAUUUACCACAACUCU [SHAPE_invivo_SARS-CoV-2_Motif_209] | -0.516 | -0.19 | -0.078 | -0.326
CACAGAAAAGUACUGUG [SHAPE_invivo_SARS-CoV-2_Motif_52] | -0.279 | 0.891 | 1.15 | 0.427
UAGGUUUUUCUACAGGUGUUAACCUA [SHAPE_invitro_SARS-CoV-2_Motif_336] | -0.856 | -0.981 | -0.603 | -0.426
GCCGAAUACCAUAAUGAAUCUGGC [SHAPE_invitro_SARS-CoV-2_Motif_29] | -0.0249 | -0.479 | -0.597 | -0.529
AUUCUAUUCUAUUCUAUUCU [r(AUUCU)4] | -0.629 | 1.03 | 1.33 | -0.0109
GUUAAAAUGUUUGAUGCUUACGUUAAUACGUUUUCAUCAACUUUUAAC | -1.35 | -1.54 | -1.02 | -0.247
AAAGUGCAGUGAAAAGAACAAUCAAGGGUACACACCACUGGUUGUUACUCACAAUUUUGACUUCACUUU | 0.0106 | -0.172 | -0.381 | -0.0864
UGACGAUGCUGUUGUGUGUUUCAAUAGCACUUAUGCAUCUCA [SHAPE_invitro_SARS-CoV-2_Motif_289] | -0.71 | 1.01 | 1.24 | -0.0833
UGUAUGAAAAUGCCUUUUUACCUUUUGCUAUGGGUAUUAUUGCUAUGUCUGCUUUUGCAAUGAUGUUUGUCAAACAUAAGCAUGCA | -0.447 | -0.547 | -0.713 | 0.0997
UUAAGUGACACACUUAA | -1.49 | -1.18 | -0.711 | -0.663
UCUCCUCAUUUACUGUGAAUGUGAGGGGA [IAV_invivo_PB2_1_Motif_31+IAV_invivo_PB2_1_Motif_31] | -0.905 | -0.72 | -0.428 | -0.219
AUGAUGUUUCUUUUUUAGCACAU | -1.28 | -1.09 | -0.696 | -0.427
AACUGGUAAUACACUUCAGUGUAUAAUGCUAGUU | -1.89 | -1.55 | -0.966 | -0.418
GUUGUCUUUGAUGAAAUUUCAAUGGCCAC [DMSMaPseq_invitro_SARS-CoV-2_Motif_310] | 0.376 | -0.615 | -0.693 | -0.29
UAAUUAUAAAUUACCAGAUGAUUUUACAGGCUGCGUUAUAGCUUGGAAUUCUAACAAUCUUGAUUCUAAGGUUGGUGGUAAUUAUAAUUA | -0.713 | -0.838 | -0.486 | 0.371
GGUUUUAUAGCUGGCUUGAUUGCCAUAGUAAUGGUGACAAUUAUGCUUUGCUGUAUGACC | -0.582 | -0.717 | -0.96 | -0.541
